Data from patent publication US10919943B2, “Mutant proteins enabling agrochemical control of plant gene expression” (The Regents of the University of California, priority 2016, dated 2021).

T1: wild type HAB1 (Arabidopsis thaliana, UniProt O49686+Q9CAJ0, A160V/F108A/F159V/K59R/M158I/S122G/T162D/V81I/Y58H)
T1 construct: expressed in transfected cells
T1 sequence (Q9CAJ0 4-511): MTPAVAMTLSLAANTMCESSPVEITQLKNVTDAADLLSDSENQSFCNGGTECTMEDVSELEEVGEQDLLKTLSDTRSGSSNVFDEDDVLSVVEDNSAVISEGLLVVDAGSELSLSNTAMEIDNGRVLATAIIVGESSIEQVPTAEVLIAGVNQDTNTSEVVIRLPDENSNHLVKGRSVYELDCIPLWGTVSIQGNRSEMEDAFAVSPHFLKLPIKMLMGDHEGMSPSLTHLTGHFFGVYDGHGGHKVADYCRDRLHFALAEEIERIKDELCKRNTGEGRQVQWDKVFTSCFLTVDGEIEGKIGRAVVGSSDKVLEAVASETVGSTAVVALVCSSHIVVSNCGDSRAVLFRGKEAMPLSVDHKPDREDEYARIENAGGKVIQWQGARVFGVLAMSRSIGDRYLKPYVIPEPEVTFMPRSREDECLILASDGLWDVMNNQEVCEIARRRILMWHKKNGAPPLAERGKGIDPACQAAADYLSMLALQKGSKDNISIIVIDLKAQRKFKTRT
T1 sequence (O49686 1-191 Y58H/K59R/V81I/F108A/S122G/M158I/F159V/A160V/T162D): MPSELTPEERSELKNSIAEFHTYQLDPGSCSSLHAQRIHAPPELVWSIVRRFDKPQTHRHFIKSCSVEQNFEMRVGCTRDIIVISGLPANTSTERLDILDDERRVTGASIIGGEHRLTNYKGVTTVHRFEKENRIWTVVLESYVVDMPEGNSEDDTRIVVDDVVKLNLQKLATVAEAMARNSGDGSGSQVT


Legend:
[1] = tested on: 35S::PYR1^MANDI transgenic strain; test: Thermography of leaf temperature after chemical treatment; type: in vivo, Arabidopsis thaliana; settings: 1 μM then 10 μM mandipropamid, 24 hours after treatment; FIG. 10
Text: To examine the effects of over-expressing either PYR1*^-MANDI or HAB1* in Arabidopsis thaliana, we made 35S-driven GFP-PYR1*^-MANDI and GFP-HAB1* constructs by cloning the mutant genes into the binary vector pEGAD, and the resultant plasmids were transformed into Agrobacterium tumefaciens. The floral dip method was used to generate T0 transgenic seed for both constructs and the T0 seed was germinated in soil containing glufosinate to select for transgenic T1 plants. The PYR1*^-MANDI T1 plants isolated were grown for ˜5 weeks and then treated with mandipropamid, using comparisons to wild type Columbia plants and a previously constructed 35S::PYR1^MANDI transgenic strain as controls. The treated plants were thermographed 24 hours after chemical applications to examine leaf temperature, which increases after ABA responses are activated, due to reduced transpiration. To examine different mandipropamid concentrations, the plants were first treated with 1 μM mandipropamid and then 3 days later were treated again with 10 μM mandipropamid.

HAB1^!-2 = test: Yeast two hybrid, mandipropamid-promoted interaction of PYR1 variants with HAB1^!-2; type: cell-based
Text: (§1) To engineer orthogonal mandipropamid responsiveness, we introduced the PYR1^! mutation into the PYR1^MANDI receptor to create a septuple mutant called PYR1^!-MANDI (PYR1^Y58H;K59R;V81I;F108A;S122G;F159L;T162D). This mutant interacts with HAB1^! and HAB^!-2 in response to low μM mandipropamid in yeast two-hybrid assays, but is ˜100-fold less sensitive than the PYR1^MANDI/HAB1 interaction, which responds to concentrations in the low nM range (FIG. 3).
To improve sensitivity, we mutagenized ligand contacting and interface residues in PYR1^!-MANDI using NNK primers, pooled the mutant libraries, and used the mutagenized receptors in selection experiments using to identify enhancer mutations. The NNK mutagenesis screen targeted the following residues: P55, H60, F61, I62, K63, V83, S85, G86, L87, P88, A89, S92, E94, I110, H115, R116, L117, Y120, E141, P148, G150, N151, D154, D155, T156, M158, A160, V163, V164, L166, N167, and K170. […] Since M158 and A160 flank the […] mutation present in PYR1^MANDI, we inferred that the closely located orthogonalizing T162D mutation in PYR1^!-MANDI may have reduced mandipropamid sensitivity by altering the local structure of the C-terminal α3-helix, which participates in ligand-induced conformational changes needed for PP2C binding (Nishimura et al., 2009). We therefore simultaneously mutagenized positions M158, F159 and A160 using a primer with degenerate NNK codons at all three positions. F159 was included in this mutagenesis because we have previously observed that multiple substitutions at F159 (A,C,I,L,M,T, or V) are permissive for mandipropamid responsiveness (S. Y. Park et al., n.d.), and sought to test whether residues other than leucine at position 159 might function better in the context of simultaneous changes to both A160 and M158. The mutagenic primer was used in QuickChange mutagenesis reactions using pBD-PYR1^!-MANDI template, and a library of ˜12,000 clones was generated. Plasmid DNA for the library was prepared from pooled E. coli transformants, and subsequently transformed into S. cerevisiae strain MAV99 harboring pACT-HAB1^!-2. ˜20,000 yeast transformants were generated, pooled, and plated onto SD(-Leu,-Trp) agar media supplemented with 0.1% fluorotic acid (to select against mutants that interact in a ligand-independent fashion). The surviving cells were collected and plated onto SD(Leu,-Trp,-Ura) plates supplemented with 50 nM mandipropamid. The colonies displaying the best uracil-independent growth were isolated and retested on different mandipropamid concentrations and then stained in β-galactosidase assays to rank their relative strength.

wild type HAB1 = biological target: T1, wild type HAB1; test: Yeast two hybrid, mandipropamid-promoted interaction of PYR1 variants with wild type HAB1; type: cell-based
Text: as §1
To improve sensitivity, we mutagenized ligand contacting and interface residues in PYR1^!-MANDI using NNK primers, pooled the mutant libraries, and used the mutagenized receptors in selection experiments using to identify enhancer mutations. The NNK mutagenesis screen targeted the following residues: P55, H60, F61, I62, K63, V83, S85, G86, L87, P88, A89, S92, E94, I110, H115, R116, L117, Y120, E141, P148, G150, N151, D154, D155, T156, M158, A160, V163, V164, L166, N167, and K170. […] Since M158 and A160 flank the F159V mutation present in PYR1^MANDI, we inferred that the closely located orthogonalizing T162D mutation in PYR1^!-MANDI may have reduced mandipropamid sensitivity by altering the local structure of the C-terminal α3-helix, which participates in ligand-induced conformational changes needed for PP2C binding (Nishimura et al., 2009). […]

Molecule	leaf temperature [1]	mandipropamid concentration to which the interaction responds (HAB1^!-2; FIG. 3, FIG. 4)	relative mandipropamid sensitivity among selected mutants (HAB1^!-2; β-galactosidase assays on different mandipropamid concentrations)	fold less sensitivity to mandipropamid than the orthogonal interaction (wild type HAB1; FIG. 6)	interaction with wild type HAB1 (wild type HAB1; yeast two hybrid)
C#CCOc1ccc(CCNC(=O)C(OCC#C)c2ccc(Cl)cc2)cc1OC (centres unmarked) [mandipropamid]	strong increase in leaf temperature				
PYR1*^-MANDI: PYR1 mutant with 9 mutations, most sensitive to mandipropamid (protein, listed as Arabidopsis thaliana) MPSELTPEERSELKNSIAEFHTYQLDPGSCSSLHAQRIHAPPELVWSIVRRFDKPQTHRHFIKSCSVEQNFEMRVGCTRDIIVISGLPANTSTERLDILDDERRVTGASIIGGEHRLTNYKGVTTVHRFEKENRIWTVVLESYVVDMPEGNSEDDTRIVVDDVVKLNLQKLATVAEAMARNSGDGSGSQVT		nM levels	most sensitive mutant	~10 fold	weakly interacts
